T1: human oxyntomodulin (53-89) (human)
T1 construct: also called synthetic human oxyntomodulin
T1 peptide: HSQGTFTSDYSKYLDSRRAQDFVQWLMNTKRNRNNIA

B1: Anti-Human Oxyntomodulin C-Terminal Antibody (antibody, V domains shown)
VH: QVQVQQSGAELVMPGTSVKLSCKASGYNFTNYWLHWVKQRPGQGLEWIGELDPEYGFANYNQKFKGKATLTVDKSSSTAYMQLSSLTSEDSAVYYCSAGFMDYWGQGTSVTVSS
VL: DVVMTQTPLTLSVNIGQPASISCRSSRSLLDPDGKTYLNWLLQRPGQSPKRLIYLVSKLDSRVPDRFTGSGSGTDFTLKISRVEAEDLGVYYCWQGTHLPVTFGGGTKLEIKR
notes: In SPR it was captured as IgG by goat anti-mouse IgG; In the sandwich immunoassay it was biotin-labelled and held on streptavidin plates; also called capture antibody
B2: Anti-Human Oxyntomodulin N-Terminal Antibody (antibody, V domains shown)
VH: QIQLVQSGPELKKPGETVKISCKASGYTFTDYAFSWVKQAPGKGLKWMGWITTNTGEATYADDFKGRFAFSLETSASTAYLQISNLKNEDTATYFCARETEYGDSSWFGHWGQGTLVTVSA
VL: DIVLTQSPASLAVSLGQRATISCRASESVDGWGNSFMHWYQQKPGQPPKLLIYLATYRVAGIPARFSGSGSRTDFTLTINPVEADDVATYYCMQSSEDPYTFGGGTKLEIKR
notes: In SPR it was captured as IgG by goat anti-mouse IgG; In the sandwich immunoassay it was ruthenium-labelled; also called detection antibody

Biological target: T1, human oxyntomodulin (53-89)
Assay: SPR (Biacore T100), antibody captured by anti-mouse IgG, oxyntomodulin 1.1-90 nmol/L as analyte, 1:1 model
Description: Kinetic analysis and binding specificity of the N-Terminal Antibody and the C-Terminal Antibody are determined by surface plasmon resonance using Biacore T100 (GE Healthcare Life Sciences). Goat anti-mouse IgG antibody (Southern Biotech) is immobilized on a Series S CM5 sensor chip and used to capture approximately 1500 response units of anti-oxyntomodulin IgG. Binding to duplicate injections of various concentrations of human oxyntomodulin (SEQ ID NO: 25) (1.1 to 90 nmol/L) diluted in running buffer (HEPES buffered saline containing 3 mmol/L EDTA and 0.05% Tween) and 22.5 nmol/L of either human glicentin span (49-89) (SEQ ID NO: 29) or human glucagon (53-81) (SEQ ID NO: 30) peptides are measured with a flow rate of […]. Kinetic constants are determined using 1:1 binding model with the T100 Evaluation software.
Using Biacore analysis of the N-Terminal Antibody, the equilibrium dissociation constant is 1.5×10⁻¹⁰ mol/L (Table 2).

| Binder | Kd | koff | kon |
| --- | --- | --- | --- |
| B1 | 0.083 nM | 0.00086 s⁻¹ | 1e+07 M⁻¹ s⁻¹ |
| B2 | 0.15 nM | 0.001 s⁻¹ | 7.2e+06 M⁻¹ s⁻¹ |

From patent publication US20240059770A1 (Eli Lilly, published 2024)
